Laboratory results from article PMC7593903.

The sequences below were run against T1, ZafA (Aspergillus fumigatus (FGSC A1163 akuB(KU80)-delta pyrG1 is the study strain; cDNA source 'fungal cDNA')) (UniProt A3QX02) (assay: EMSA). Conditions: 10 mM Tris-HCl pH 8.0, 50 mM NaCl, 1 mM MgCl2, 500 uM EDTA, 500 uM DTT, 4% glycerol; 500 ng ZafA, 5 ng probe; 30 min at 25 C; Zn/Cu added 10 min after start of ….
T1 sequence: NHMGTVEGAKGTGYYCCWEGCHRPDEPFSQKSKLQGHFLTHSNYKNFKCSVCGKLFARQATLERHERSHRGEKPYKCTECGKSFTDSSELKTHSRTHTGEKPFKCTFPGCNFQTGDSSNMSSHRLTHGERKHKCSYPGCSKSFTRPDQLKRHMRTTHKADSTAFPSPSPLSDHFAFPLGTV
“AAGGGCCCAGGGCCTGTCTTGTTGTACGACTTCACTTTCTCCCAGGGTGCCACTGCTTGCTATCTCTATGTAGATAACCGCTGTCTTTCCTCTTTTTTTGACCCTTTCTTCTATTGCTCTGGTCTGCT (double strand) [CtrC promoter EMSA probe, 128 bp]” was tested, and the binding was “binds”. In the case of “CTCAAAGCTCGCTCATCGGATTTTTGATTATCAGTTTTGCGAGACCAAGCATGATAGTGACAGAGCATTCAAGGTGAGAATGTGAAGAATGCGTGGCGGCGTAGCATTCTTACT (double strand) [CtrA2 promoter EMSA probe, 114 bp]”, the binding is reported as “no binding”. For “TACCAGGGCCCCTTTCCCTCAAGTTGCTCGCACAGATCTGGATGTTACTTTCATCGAATATATACACGTGGGAAGCTCCCAAGGTCCTCTTGGAT (double strand) [ZafA promoter EMSA probe, 95 bp]”, the binding was “binds”. With “TGCCGCCATTGTTCAGCAGTGCGGTGCTGTCAAGGTCAAGGTCAAGGACGGCCTTCTCCAAGGATGTCACATACAAAGGGAATAGACTGAATAAATCATTTCCTCGGCAACGATCCGA (double strand) [CtrA1 promoter EMSA probe, 118 bp]” the binding was “no binding”.

These sequences were tested against T1, ZafA (Aspergillus fumigatus (FGSC A1163 akuB(KU80)-delta pyrG1 is the study strain; cDNA source 'fungal cDNA')) (assay: competition). Conditions: 10 mM Tris-HCl pH 8.0, 50 mM NaCl, 1 mM MgCl2, 500 uM EDTA, 500 uM DTT, 4% glycerol; 500 ng ZafA, 5 ng probe; 30 min at 25 C; Zn/Cu added 10 min after start of ….
For “AAGGGCCCAGGGCCTGTCTTGTTGTACGACTTCACTTTCTCCCAGGGTGCCACTGCTTGCTATCTCTATGTAGATAACCGCTGTCTTTCCTCTTTTTTTGACCCTTTCTTCTATTGCTCTGGTCTGCT (double strand) [CtrC promoter fragment, unlabeled]”, the binding was “binds”. In the case of “AGCAGACCAGAGCAATAGAAGAAAGGGTCAAAAAAAGAGGAAAGACAGCGGTTATCTACATAGAGATAGCAAGCAGTGGCTGGGACGGAGAAAGTGAAGTCGTACAACAAGACAGGCCCTGGGCCCTT (double strand)”, the binding is reported as “no binding”.
